In patent publication US20180155451A1 (published 2018):
Positions count from the first letter of the chain named. Names and notes keep the numbering of the source.

B1: H240-Kn120/H240-Hl182/L73-k0 (antibody, human IgG1, kappa)
heavy 1: QDQLVQSGAEVKKPGASVKVSCKASGFNIKDTYIQWVRQAPGQGLEWMGRIDPLRKQTKYREKFEGRVTITADTSTNTAYMELSSLRSEDTAVYYCVRSGREFDYWGQGTLVTVSSASTKGPSVFPLAPSSKSTSGGTAALGCLVKDYFPEPVTVSWNSGALTSGVHTFPAVLQSSGLYSLSSVVTVPSSSLGTQTYICNVNHKPSNTKVDKKVEPKSCDKTHTCPPCPAPEYYWGPMVFLFPPKPKDTLMISRTPEVTCVVVDVSDEDPEVKFNWYVDGVEVHNAKTKPREEQYNATYRVVSVLTVLHQDWLNGKEYKCKVSNKDLPAPIEKTISKAKGQPREPQVCTLPPSRDELTKNQVSLWCLVKGFYPSDIAVEWESNGQPENNYKTTPPVLDSDGSFFLYSKLTVDKSRWQQGNVFSCSVMHEALHNHYTQKSLSLSP
heavy 2: QDQLVQSGAEVKKPGASVKVSCKASGFNIKDTYIQWVRQAPGQGLEWMGRIDPLRKQTKYREKFEGRVTITADTSTNTAYMELSSLRSEDTAVYYCVRSGREFDYWGQGTLVTVSSASTKGPSVFPLAPSSKSTSGGTAALGCLVKDYFPEPVTVSWNSGALTSGVHTFPAVLQSSGLYSLSSVVTVPSSSLGTQTYICNVNHKPSNTKVDKKVEPKSCDKTHTCPPCPHPELLGGPSVFLFPPKPKDTLMISRTPEVTCVVVDVSHEEPEVKFNWYVDGVEVHNAKTKPREEQYNSTYRVVSVLTVLHQDWLNGKEYKCKVSNDALPKPIEETISKAKGQPREPQVYTLPPSRCELTKNQVSLSCAVKGFYPSDIAVEWESNGQPENNYKTTPPVLDSDGSFFLVSKLTVDKSRWQQGNVFSCSVMHEALHNHYTQKSLSLSP
light: DIQMTQSPSSLSASVGDRVTITCRASQDIHKYIAWYQQKPGQAPRLLIQYTSTLQPGVPSRFSGSGSGTDYTFTISSLQPEDIATYYCLQYEQLRTFGGGTKVEIKRTVAAPSVFIFPPSDEQLKSGTASVVCLLNNFYPREAKVQWKVDNALQSGNSQESVTEQDSKDSTYSLSSTLTLSKADYEKHKVYACEVTHQGLSSPVTKSFNRGEC
notes: Heterodimerized anti-epiregulin IgG1 antibody; A231H introduced into H240-Hl068; also called H240-Kn120/H240-HI182/L73-k0
B2: H240-Kn149/H240-Hl068/L73-k0 (antibody, human IgG1, kappa)
heavy 1: B1 heavy 1 with L327W, K333L
heavy 2: B1 heavy 2 with H230A
light: B1 light
notes: Heterodimerized anti-epiregulin IgG1 antibody; L328W and K334L introduced into H240-Kn120; also called H240-Kn149/H240-HI068/L73-k0
B3: H240-Kn138/H240-Hl068/L73-k0 (antibody, human IgG1, kappa)
heavy 1: B1 heavy 1 with L327W
heavy 2: B1 heavy 2 with H230A
light: B1 light
notes: Heterodimerized anti-epiregulin IgG1 antibody; L328W introduced into H240-Kn120; also called H240-Kn138/H240-HI068/L73-k0
B4: H240-Kn172/H240-Hl177/L73-k0 (antibody, human IgG1, kappa)
heavy 1: B1 heavy 1 with I331M
heavy 2: B1 heavy 2 with H230A, I331Q
light: B1 light
notes: Heterodimerized anti-epiregulin IgG1 antibody; I332M introduced into H240-Kn120 and I332Q into H240-Hl068; also called H240-Kn172/H240-HI177/L73-k0
B5: H240-Kn138/H240-Hl147/L73-k0 (antibody, human IgG1, kappa)
heavy 1: B1 heavy 1 with L327W
heavy 2: B1 heavy 2 with H230A, L327W
light: B1 light
notes: Anti-epiregulin IgG1 antibody; L328W introduced into both H chains of H240-Kn120/H240-Hl068/L73-k0; also called H240-Kn138/H240-HI147/L73-k0
B6: H240-Kn178/H240-Hl068/L73-k0 (antibody, human IgG1, kappa)
heavy 1: B1 heavy 1 with K333Y
heavy 2: B1 heavy 2 with H230A
light: B1 light
notes: Heterodimerized anti-epiregulin IgG1 antibody; K334Y introduced into H240-Kn120; also called H240-Kn178/H240-HI068/L73-k0
B7: H240-Kn173/H240-Hl068/L73-k0 (antibody, human IgG1, kappa)
heavy 1: B1 heavy 1 with I331Q
heavy 2: B1 heavy 2 with H230A
light: B1 light
notes: Heterodimerized anti-epiregulin IgG1 antibody; I332Q introduced into H240-Kn120; also called H240-Kn173/H240-HI068/L73-k0
B8: H240-Kn166/H240-Hl170/L73-k0 (antibody, human IgG1, kappa)
heavy 1: B1 heavy 1 with L327A
heavy 2: B1 heavy 2 with H230A, L327A
light: B1 light
notes: Anti-epiregulin IgG1 antibody; L328A introduced into both H chains of H240-Kn120/H240-Hl068/L73-k0; also called H240-Kn166/H240-HI170/L73-k0

Experiments:
[1] = molecular target: T1, FcgRIIIaF (human, UniProt P08637 17-208); experiment: SPR (Biacore); KD of H240-Kn120/H240-Hl068/L73-k0 divided by KD of this antibody
T1 construct: extracellular domain; Soluble extracellular domain with C-terminal His tag; polymorphic site made after J. Clin. Invest; also called FcγRIIIa F; not shown: His tag attached to the C terminus
Method: (§1) Analysis of interaction between obj ective antibody and the FcγR was carried out using Biacore T100 (GE Healthcare), Biacore T200, Biacore A100, and Biacore 4000.

[2] = molecular target: T2, FcgRIa (human, UniProt P12314 16-292); experiment: as above
T2 construct: extracellular domain; Soluble extracellular domain with C-terminal His tag, expressed in FreeStyle293 cells; also called FcγRIa; FcγRI; not shown: His tag attached to the C terminus
Method: as §1

[3] = molecular target: T3, FcgRIIIaV (human, UniProt P08637 17-208); experiment: as above
T3 construct: extracellular domain; Soluble extracellular domain with C-terminal His tag; polymorphic site made after J. Clin. Invest; also called FcγRIIIa V; not shown: His tag attached to the C terminus
Method: as §1

[4] = molecular target: T4, FcgRIIaR (human, UniProt P12318 34-217); experiment: as above
T4 construct: extracellular domain; Soluble extracellular domain with C-terminal His tag; also called FcγRIIa R; FcγRIIa type R; not shown: His tag attached to the C terminus
T4 sequence (looked up): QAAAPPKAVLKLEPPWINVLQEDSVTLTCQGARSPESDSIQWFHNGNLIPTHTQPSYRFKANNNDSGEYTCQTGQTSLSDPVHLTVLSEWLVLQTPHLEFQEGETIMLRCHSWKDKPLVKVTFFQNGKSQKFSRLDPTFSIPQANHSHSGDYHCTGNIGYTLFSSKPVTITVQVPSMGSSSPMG
Method: as §1

[5] = molecular target: T5, FcgRIIaH (human, UniProt P12318 34-217); experiment: as above
T5 construct: extracellular domain; Soluble extracellular domain with C-terminal His tag; also called FcγRIIa H; FcγRIIa type H; not shown: His tag attached to the C terminus
T5 sequence (looked up): T4 sequence (looked up) with R134H
Method: as §1

[6] = molecular target: T6, FcgRIIb (human, UniProt P31994 43-217); experiment: as above
T6 construct: extracellular domain; Soluble extracellular domain with C-terminal His tag; also called FcγRIIb; CD32B; not shown: His tag attached to the C terminus
T6 sequence (looked up): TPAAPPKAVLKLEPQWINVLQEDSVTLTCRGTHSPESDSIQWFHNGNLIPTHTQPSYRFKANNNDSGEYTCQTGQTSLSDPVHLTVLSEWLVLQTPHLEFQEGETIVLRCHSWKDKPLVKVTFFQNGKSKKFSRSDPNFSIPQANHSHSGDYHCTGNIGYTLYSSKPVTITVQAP
Method: as §1

[7] = molecular target: T1, FcgRIIIaF; experiment: SPR (Biacore), antibody captured, FcgR as analyte
Method: (§2) Analysis of interaction between obj ective antibody and the FcγR was carried out using Biacore T100 (GE Healthcare), Biacore T200, Biacore A100, and Biacore 4000. HBS-EP+ (GE Healthcare) was used as the running buffer, and the measurement temperature was set to 25° C. Chips produced by immobilizing the antigen peptide by the amine coupling method to a Series S sensor Chip CM5 (GE Healthcare), chips produced by allowing preliminarily biotinylated antigen peptides to interact with and immobilize onto a Series S Sensor Chip SA (certified) (GE Healthcare), chips produced by immobilizing Protein L (ACTIGEN, BioVision) to Series S Sencor Chip CM5 (GE Healthcare), or chips produced by immobilizing Protein A/G (Thermo Scientific) to Series S Sencor Chip CM5 (GE Healthcare) were used. Antibodies of interest were captured onto these chips, and allowed to interact to each FcγR diluted with running buffer. To regenerate and repeatedly use the chip, the antibodies captured onto the chip were washed off by reacting 10 mM glycine-HCl, pH 1.5.

[8] = molecular target: T2, FcgRIa; experiment: SPR (Biacore), antibody captured, FcgR as analyte
Method: as §2

[9] = molecular target: T3, FcgRIIIaV; experiment: SPR (Biacore), antibody captured, FcgR as analyte
Method: as §2

[10] = molecular target: T4, FcgRIIaR; experiment: SPR (Biacore), antibody captured, FcgR as analyte
Method: as §2

[11] = molecular target: T5, FcgRIIaH; experiment: SPR (Biacore), antibody captured, FcgR as analyte
Method: as §2

[12] = molecular target: T6, FcgRIIb; experiment: SPR (Biacore), antibody captured, FcgR as analyte
Method: as §2

T3 sequence (P08637 17-208 F176V limits assumed): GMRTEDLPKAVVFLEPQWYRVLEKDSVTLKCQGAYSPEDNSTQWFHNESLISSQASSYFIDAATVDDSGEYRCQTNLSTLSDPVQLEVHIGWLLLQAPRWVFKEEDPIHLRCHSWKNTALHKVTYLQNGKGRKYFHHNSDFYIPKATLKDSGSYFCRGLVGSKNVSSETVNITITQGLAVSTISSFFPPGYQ
T2 sequence (P12314 16-292): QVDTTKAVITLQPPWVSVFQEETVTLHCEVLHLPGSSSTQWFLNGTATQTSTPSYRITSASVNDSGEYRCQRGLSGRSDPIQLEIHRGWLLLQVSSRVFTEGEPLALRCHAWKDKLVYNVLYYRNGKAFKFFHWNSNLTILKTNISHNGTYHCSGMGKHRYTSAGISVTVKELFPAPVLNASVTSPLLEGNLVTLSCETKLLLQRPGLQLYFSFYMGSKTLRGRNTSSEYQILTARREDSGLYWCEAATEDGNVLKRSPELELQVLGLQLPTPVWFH
T1 sequence (P08637 17-208): as the sequence (P08637 17-208 F176V limits assumed) above, with V160F counted along it

Row | Binder | Relative KD [1] | Relative KD [2] | Relative KD [3] | Relative KD [4] | Relative KD [5] | Relative KD [6] | Kd [7] | Kd [8] | Kd [9] | Kd [10] | Kd [11] | Kd [12]
1 | B1 | 0.7 | 0.9 | 1.2 | 0.5 | 0.5 | 0.6 | 3.1 nM | 0.18 nM | 0.29 nM | 40 nM | 77 nM | 240 nM
2 | B2 | 1.5 | 0.4 | 1.1 | 1.1 | 1.6 | 1 | 1.5 nM | 0.38 nM | 0.32 nM | 19 nM | 26 nM | 150 nM
3 | B3 | 0.6 | 1 | 0.8 | 1.1 | 1.6 | 1.2 | 3.7 nM | 0.16 nM | 0.43 nM | 19 nM | 25 nM | 130 nM
4 | B4 | 1.1 | 0.6 | 1.6 | 0.7 | 0.7 | 0.9 | 2 nM | 0.25 nM | 0.22 nM | 29 nM | 57 nM | 160 nM
5 | B5 | 0.1 | 0.5 | 0 | 1.8 | 0.3 | 1.4 | 22 nM | 0.31 nM | 16 nM | 11 nM | 130 nM | 110 nM
6 | B6 | 1.6 | 0.7 | 1.9 | 0.8 | 0.6 | 1.4 | 1.4 nM | 0.23 nM | 0.19 nM | 26 nM | 65 nM | 110 nM
7 | B7 | 1.2 | 1.3 | 0.9 | 0.5 | 0.7 | 0.5 | 1.8 nM | 0.12 nM | 0.4 nM | 40 nM | 57 nM | 280 nM
8 | B8 | 0.5 | 2.4 | 0.4 | 0.6 | 1.9 | 0.8 | 4.2 nM | 0.066 nM | 1 nM | 31 nM | 22 nM | 200 nM
